The results in this text go back to patent US20210214432A1 (Y BIOLOGICS, published 2021).

For test [1], the target named is T1, DLK1-hFc fusion protein (extracellular region of human DLK1 fused with human Fc) (human, UniProt P80370 24-303).
T1 construct: The ELISA text says 'DLK1 protein'/'antigen DLK1' coated at 100 ng/well; also called hDLK1; DLK1 antigen
T1 sequence: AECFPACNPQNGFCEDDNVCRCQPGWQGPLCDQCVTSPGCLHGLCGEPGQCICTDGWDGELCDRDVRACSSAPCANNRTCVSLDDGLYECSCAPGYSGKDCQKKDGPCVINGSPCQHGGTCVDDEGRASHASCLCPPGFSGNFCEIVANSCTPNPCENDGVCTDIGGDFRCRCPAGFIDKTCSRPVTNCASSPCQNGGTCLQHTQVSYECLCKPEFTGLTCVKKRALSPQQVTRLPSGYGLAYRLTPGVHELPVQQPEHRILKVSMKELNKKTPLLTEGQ
Kind of test: ELISA, coated DLK1 antigen, IgG titrated 100 nM to 0.046 nM, GraphPad Prism fit. (In general: ELISA stands for enzyme-linked immunosorbent assay.)

Test [2] addresses T2, human DLK1 present on the cell surface (DLK1-overexpressing MIA PaCa-2 cells); SK-N-F1 cells endogenously … (human, UniProt P80370 24-383).
T2 sequence (looked up): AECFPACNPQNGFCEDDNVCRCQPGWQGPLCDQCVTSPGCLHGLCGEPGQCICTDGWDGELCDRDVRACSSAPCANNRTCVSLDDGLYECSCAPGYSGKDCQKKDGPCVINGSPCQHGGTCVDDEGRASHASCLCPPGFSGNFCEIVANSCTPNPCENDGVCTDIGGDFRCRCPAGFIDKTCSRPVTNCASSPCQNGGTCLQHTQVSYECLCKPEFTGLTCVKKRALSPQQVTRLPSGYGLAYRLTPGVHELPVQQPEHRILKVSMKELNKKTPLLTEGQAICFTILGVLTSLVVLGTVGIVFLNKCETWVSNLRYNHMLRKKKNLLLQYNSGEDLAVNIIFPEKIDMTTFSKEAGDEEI
In words: cell-based or functional assay.

Test [3] addresses T2, human DLK1 present on the cell surface …. Kind of test: FACS, DLK1-overexpressing MIA PaCa-2 cells, antibody titrated 1/3 from 10 µg/ml. Background: A flow cytometer gives signals particle by particle.

B1: human anti-DLK1 monoclonal antibody 17B11 (antibody, V domains shown)
VH: QVQLVESGGTLVQPGGSLRLSCAASGFTFSSHAMSWVRQTPGKGLEWVSSITKSGSGTYSADSVKGRFTISRDNSKNTLYLQMNSLRAEDTAVYYCTREGLGYYYGMDVWGQGTTVTVSS
VL: QLVLTQPPSVSGAPGQRVIISCTGSSSNIGAGYDVHWYQQLPGTAPRLLIYGSTNRPSGVPDRFSGSKSGTSASLAITGLQAEDEADYYCQSYDNSLSAHYVFGTGTKVTVL
notes: Converted from scFv to IgG (pNATVH/pNATVL, HEK293E)
In turn, B1 showed a Kd in test [1] of 7190 pM.

B2: human anti-DLK1 monoclonal antibody 27F7 (antibody, V domains shown)
VH: QMQLVESGGGLVKPGGSLTLSCDATGFNFGSYYMNWVRQAPGKGLEWLAHISSTGRTIYYADSVKGRFTISRDNAKSSLDLQMNSLRAEDTAVYYCARDQGYPFGMDVWGHGTTVTVSS
VL: QLVLTQPSSVSGAPGQRVTISCTGSSSNIGAGYDVDWYQQLPGTAPKLLIYGNTNRPSGVPDRFSGSKSGTSASLAITGLQAEDDSDYYCQSYDSSLSAWVFGGGTKLTVL
notes: Converted from scFv to IgG
As to B2, the Kd in test [1] is 220 pM.

B3: human anti-DLK1 monoclonal antibody 20D3 (antibody, V domains shown)
VH: QMQLVQSGGGLVQPGRSLRLSCAASGFTFDDYAMHWVRQAPGKGLEWVSGISWNSGSIGYADSVKGRFTISRDNAKNSLYLQMNSLRAEDTAVYYCTKGPGLATGKVYFNSWGQGTQVTVSS
VL: DIQMTQSPSSVSASVGDRVTITCRASQRISSWLAWYQQKPGRAPKLLIHSASTLHNGVPSRFSGSASGTDFTLTISSLQPEDFAIYYCQQGHSFPYTFGQGTKLDIK
notes: Converted from scFv to IgG
In turn, B3 gave a Kd in test [1] of 54000 pM.

B4: human anti-DLK1 monoclonal antibody 18A5 (antibody, V domains shown)
VH: QVQLVQSGGAVVQPGHSLRLSCEASGFKFKDYGMHWVRQAPGKGLEWLAVISHDGRNKNYADSVKGRLTISRDNSKNTLSFQMNSLRAEDTAVYYCVRDWSYAFDIWGQGTLVTVSS
VL: DIQMTQSPSFLSASVGDRVNITCRASQDISRRLAWYQQKPGKAPKLLIYGAASLQSAVASRFSGSGSGTEFTLTISSLQPEDFANYYCQQIYTTPLTFGGGTKVEIK
notes: Converted from scFv to IgG; also called DLK1-18A5
For the molecule B4, in test [2], the “EC50 of cytotoxicity of 18A5-Fab ZAP in DLK1-overexpressing MIA PaCa-2 cells” value was determined as 0.002 pM. For the same molecule, the response in test [3] was half-maximal at 0.131 µg/mL (EC50). In test [1], this molecule yielded a dissociation constant Kd of 520 pM.

B5: human anti-DLK1 monoclonal antibody variant 18A5_LS_1A10 (antibody, V domains shown)
VH: QVQLVQSGGAVVQPGHSLRLSCEASGFKFKDYGMHWVRQAPGKGLEWLAVISHDGRNKNYADSVKGRLTISRDNSKNTLSFQMNSLRAEDTAVYYCVRDWSYAFDIWGQGTLVTVSS
VL: DIQMTQSPSSLSASLGDRVTITCRASQGISSALAWYQQKPGKAPKLLIYAASSLQSGVPSRFSGSGSGTDFTLTINSLQPEDFATYYCQQSYTTPLTFGGGTKVEIK
For B5, the “EC50 of cytotoxicity of 18A5_LS_1A10-Fab ZAP in DLK1-overexpressing MIA PaCa-2 cells” value in test [2] came to 0.0011 pM. In test [3], this molecule gave an EC50 of 0.12 µg/mL. This molecule also returned a Kd in test [1] of 47 pM.

B6: human anti-DLK1 monoclonal antibody variant 18A5_AM_1A12 (antibody, V domains shown)
VH: QVQLVQSGGGVVQPGGSLRLSCAASGFKFKDYGMHWVRQAPGKGLEWLAVISHDGRNKNYADSVKGRLTISRDNSKNTLSFQMNSLRAEDTAVYYCVRDWSYAFDIWGQGTLVTVSS
VL: DIQMTQSPSFLSASVGDRVTITCRASHDISSSLAWYQQKSGKAPKLLIYSASNLKSGVPSRFSGSGSGTDFSLTISSLQPEDFATYYCQQSYTTVLTFGGGTKLEIK
Take B6: the “EC50 of cytotoxicity of 18A5_AM_1A12-Fab ZAP in DLK1-overexpressing MIA PaCa-2 cells” value in test [2] came out at 0.0026 pM. The molecule further gave a concentration for a half-maximal effect (EC50) in test [3] of 0.0903 µg/mL. In test [1], this molecule came in with a Kd of 13 pM.

B7: human anti-DLK1 monoclonal antibody 35E2 (antibody, V domains shown)
VH: QVQLVESGGGVVQPGRSLRLSCAASGFTFSSYAMHWVRQAPGKGLEWVAVIYSGGSTYYADSVKGRFTISRDNSKNTLYLQMNSLRAEDTAVYYCAREGSYDVMTYTRIGGYFDYWGQGALVTVSS
VL: DIQMTQSPSSVSASVGDRVTITCRASQGISDWVAWYQQKPGKAPKLLIYAASSLQSGVPSRFSGSGSGTEFSLTISNLQPEDFATYYCQQANSFPLTFGPGTKVEIK
notes: Converted from scFv to IgG
For the molecule B7, binding in test [1] was put at a Kd of 330 pM.

For orientation: Kd means the free concentration of one partner at which half of the binding sites on the other are occupied at equilibrium, for simple one-to-one binding. Low values mean a tighter complex, high ones a looser complex. As a reminder, the EC50 is the concentration that produces a half-maximal response.
